Test results published in the nanobody polyreactivity screen of Harvey et al. (2022).

Assay: yeast display, Sf9 membrane polyspecificity reagent, FACS + sequencing; frameworks hold sequencing errors
Method in brief: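 Nanobodies from a synthetic yeast display library (Saccharomyces cerevisiae BJ5465), induced 36–48 hours with galactose, were stained 1 hour at 4 °C with 10% biotinylated, detergent-solubilized Sf9 membrane reagent, enriched on streptavidin microbeads, then FACS-sorted. Anti-HA (expression) and streptavidin (reagent binding) fluorescence set low and high (top ~1%) gates. Polyreactivity labels come from the gate of origin. Genes were colony-PCR amplified, MiSeq 2 × 250 sequenced and filtered by CDR length.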

Sequence	polyreactivity (PSR sort gate)
QVQLVESGGGLVQAGGSLSLSCAASGRTFKPYAMGWYRQAPGKERELVAVITSNGSSTYYADSVKGRFTISRDNAKNTVYLQMNSLKPEDTAVYYCATKLTYTLTSGAYAYDYWGQGTQVTVSS	low polyreactivity
QVQLVESGGGLVQAGGSLSLSCAASGRTFYTNAMGSSRQAPGKERELVAAISLRDVNTYYADSVKGRFTISRDNAKNTVYLQMNSLKPEDTAVYYCAARSRRRFDWGQGTQVTVSS	high polyreactivity
QVQLVESGGGLVQAGGSLSLSCAASGSIFAYKAMGWYRQAPGKEREFVAVITRSDDSTYADSVKGRFTISRDNAKNNVYLQMNSLKPEDTAVYYCAVVANYVYSKYDYWGQGTQVTVSS	low polyreactivity
QVQLVESGGGLVQAGGSLSLSCAASGSIFGIYAMGWYRQAAGKDRELVATINSRGTTNYADSVKGRFTISRYNAKNTVYLQMNSLKPEDTAVYYCAARFSTYRGKLKGYEYWGQGTQVTVSS	high polyreactivity
QVQLVESGGGLVQAGGSLSLSCAASGSIFGSYAMGWYRKAPGKERELVAAITGSGVSTYYADSVKGRFTISRDNAKYTVYLQMNSLKPEDTAVYYCAAKRYYARSAYGSYFIVGYWGQGTQVTVSS	high polyreactivity
QVQLVESGGGLVQAGGSLSLSCAASGSIFLRNAMGWYRQAPGKERELVAAITWDSGDTYYADSVKGRFTISRDHAKNTVYLQMNSLKPEDTAVYYCNTLGLSSDWGQGTQVTVSS	low polyreactivity
QVQLVESGGGLVQAGGSLSLSCAASGSIFLRNAMGWYRQAPGKETEYVASITWNGASTSYADSVMGRFTISRDNAKNTVYLQMNSLKPEDTAVYYCAARDSQYGGPGMDYWGQGTQVTVSS	low polyreactivity
QVQLVESGGGLVQAGGSLSLSCAASGSIFNPYGKGWYRQAPGKERELVAAITSSGGDTYYADSVKGRFTISRDNAKNTVYLQMNSLKPEDTAVYYCAATGLPGYYAYDYWGHGTQVTVSS	low polyreactivity
QVQLVESGGGLVQAGGSLSLSCAASGSIFNRYTMGWYRQAPGKERELVADISKSGTRTYYADSVKGRFTISRDNAKNTVYLQMNSQKPEDTSVYYCAKSSVAVYQTRYDYWGQGTQVNVSS	high polyreactivity
QVQLVESGGGLVQAGGSLSLSCAASGSIFPGNAMGWYRQAPGKERELVAVIDFSGASTYYADSVKGRFTISRDNAKNTVYLQMNSLKPEDTADYWGQGTQVTVSS	low polyreactivity
QVQLVESGGGLVQAGGSLSLSCAASGSIFQPYVMGWYRQAPGKEREFVATIRYSGGITYADSVKGRFTISRDNSKNTVYLQMNSLKPVVTAVYYCACYCYCYWGQGTQVNVSS	low polyreactivity
QVQLVESGGGLVQAGGSLSLSCAASGSIFRHNVMGWYIPAPGKERELVAAISGGGGRTYYADSVKGRFTISRDNAKNTDYLQMKSLKPEDTAVYYCYAYVGLSEGDYWGQGTHVTVSS	high polyreactivity
QVQLVESGGGLVQAGGSLSLSCAASGSIFRYYAMGWYRQAPGKERELVAAITSGGRTNYADSVKGRFTISRDNAKNTVYLQMNSLKREDTAVYYCNKCYNAVWRYRGDYWGQGTQVTVSS	high polyreactivity
QVQLVESGGGLVQAGGSLSLSCAASGSIFVIYTMGWYRPAPGKERELVAGITWSTGNTYYADSVKGRFTISRDNAKNTFYLQMNSLKPEDTAVYSCAARTTSRWRSGAYYYWGQGTQVTVSS	high polyreactivity
QVQLVESGGGLVQAGGSLSLSCAASGSIFVYKAMGWYRPAHGKERELVAAISSSGGSTYYADSVKGRFTISRDNAKNTVYLQMNSLKPEDTAVYYCAAEAVRKVPSYYSYAYYYWGQGTQVTVSS	high polyreactivity
QVQLVESGGGLVQAGGSLSLSCAASGSIFYGNAMGWYRQEPGKERELVAAITYGTSSTYYADSVKGRFTISRDKAKNTVYLQMNSLKPEDTAVYYCAADAKSHPTTRNYVGSPMDYWGQGTQVTVSS	low polyreactivity

Sequence	polyreactivity (PSR sort gate)
QVQLVESGGGLVQAGGSLSLSCAASGSIIARYAMGWYRQAPGKERELVAAITWSATSTYYADSVKGRFTISRDNAKNTVYLQMTSLKPEDTAVYYCNAGASYFLVISQSRRDYWGQGTQVTVSS	low polyreactivity
QVQLVESGGGLVQAGGSLSLSCAASGSTFDRYAMGWYRQAPGKERELVAAISHSGGRTYYADSVKGRFTISRDNAKNTVYLQMNSLKPEDTAVFYCAAKSRSGTEAAYGYWGQGTQVTVSS	low polyreactivity
QVQLVESGGGLVQAGGSLSLSCAASGSTFFSYAMGWYRQAPGKEREFVAAITYSSGRTYYADSVKGRFTISRDNAKNTVYLQMNSLKPEDTAVYYCATTGFVWGRGYDYWGQGTQVTVSS	high polyreactivity
QVQLVESGGGLVQAGGSLSLSCAASGSTFGDYAMGWYRQAPGKERELVAAITSSGGRTFYADSVKGRFTISRDNAKNTVYLQMNSLKPEDHAVYYCAAEFTDPPSEYEYWGQGTQVTVSS	low polyreactivity
QVQLVESGGGLVQAGGSLSLSCAASGSTFGSNAKGWYRQAPGKARELVAAISSDGSTNYADSVKGRFTISRDNAKNTVYLQMNSLKPEDTAVYYCAADDRHRYNIYDYWGQGTQVTLSS	low polyreactivity
QVQLVESGGGLVQAGGSLSLSCAASGSTFRGYAMGWDRQAPGKERELVADSTYYADSVKGRFTISRDNAKNTVYFQMNCLKPEDTAVYYCNADIAGWGSQDGTDDYWGLGTQVTVSS	high polyreactivity
QVQLVESGGGLVQAGGSLSLSCAASGSTFSRYGMGGYRQAPGKERELVAAISYSGGGTYYADSVKGRFTISRDNAKNTVYLQMNSQKREDNAVYYCNVEYPKRANLSDYWGQGTQVTVSS	high polyreactivity
QVQLVESGGGLVQAGGSLSLSCAASGSTFSVYAMGWYRQAPGKERELVAAITRSGGSTYYADSVKGRFTISRDNAKNTVYLQMNSLIAEDSAVYYCNAEWYYVWFITTYWLDQYGYWGQGTQVTVSS	low polyreactivity
QVQLVESGGGLVQAGGSLSLSCAASGSTFVPNLMGWYRQAPGKERELVAAITWSGGTTTFYADSVKGRFTISRDNAKNTVYLQMNSLKPEDTAVYYCAVTRGGQYYPYYYWGQGTQVTVSS	low polyreactivity
QVQLVESGGGLVQAGGSLSLSCAASGSTFVPYAMGWYRPAPGKERELVAAISSTGGSTYYADSVKGRFTISRDNAKNTVYLQMNSLKAEDTAVYYCNALAKIRYGQINKGYYWGQGTQVTVSS	high polyreactivity
QVQLVESGGGLVQAGGSLSLSCAASGSTFVVNAMGWYRQAPGKERELVAAITQSGGSTFYADSVKGRFPISRDNAKNTVYLQMNSLKPEDTAVYYWGQGTQVTVSS	low polyreactivity
QVQLVESGGGLVQAGGSLSLSCAASGSTFYANAMGWYRQAPGKEREFVAAISYNGGSTYYADSVKGRFTISRDNAKNTVYFQMNSLKPEDTAVYYCNVDYDYPYYEVDYWGQGTQVTVSS	low polyreactivity
QVQLVESGGGLVQAGGSLSLSCAASGYIFAVYAMGWYRQAPGKEREFVAVITWRGGSTYYADSVKGRFTISRDNAKNTVYLQMNSLKPEDTAVYYCAARWHFLTSSRFDYWGQGTQVTVSS	high polyreactivity
QVQLVESGGGLVQAGGSLSLSCAASGYIFRYYAMGSYRQAPGKEREFGAAISWRGGSTYYADSVKGRFTISRDNAKNTVYLQMNRLKPEDTEFYYCAAGYFSFFGHYNAGLDYWGQGTQVTVSS	high polyreactivity
QVQLVESGGGLVQAGGSLSLSCAASGYNFYKNAMGWYRPAPGKERELVAAISTRGGSTYYADSVKGRFTISRDNAQITVYLPMNSLKPEDTAVYYCAASQHRRDWGQGTQVTVSS	high polyreactivity
QVQLVESGGGLVQAGGSLSLSCAASVRIFVYNVMGWYRQAPGKERELVAAISWGTGSTYADSVKGRFTISRDNAKNTVYLQMNSLKPEDTAVYYCAAAADYYYDHDYWGQGTQVTVSS	low polyreactivity
